This is an account of results in publication PMC5834346 (Familial cancer, 2018).

To fix the notation:
B1: RAD51 WT (natural protein, human, UniProt Q06609 1-339, looked up)
chain: MAMQMQLEANADTSVEEESFGPQPISRLEQCGINANDVKKLEEAGFHTVEAVAYAPKKELINIKGISEAKADKILAEAAKLVPMGFTTATEFHQRRSEIIQITTGSKELDKLLQGGIETGSITEMFGEFRTGKTQICHTLAVTCQLPIDRGGGEGKAMYIDTEGTFRPERLLAVAERYGLSGSDVLDNVAYARAFNTDHQTQLLYQASAMMVESRYALLIVDSATALYRTDYSGRGELSARQMHLARFLRMLLRLADEFGVAVVITNQVVAQVDGAAMFAADPKKPIGGNIIAHASTTRLYLRKGRGETRICKIYDSPCLPEAEAMFAINADGVGDAKD
B2: RAD51 A79D (natural protein, human, UniProt Q06609 1-339, looked up)
chain: MAMQMQLEANADTSVEEESFGPQPISRLEQCGINANDVKKLEEAGFHTVEAVAYAPKKELINIKGISEAKADKILAEADKLVPMGFTTATEFHQRRSEIIQITTGSKELDKLLQGGIETGSITEMFGEFRTGKTQICHTLAVTCQLPIDRGGGEGKAMYIDTEGTFRPERLLAVAERYGLSGSDVLDNVAYARAFNTDHQTQLLYQASAMMVESRYALLIVDSATALYRTDYSGRGELSARQMHLARFLRMLLRLADEFGVAVVITNQVVAQVDGAAMFAADPKKPIGGNIIAHASTTRLYLRKGRGETRICKIYDSPCLPEAEAMFAINADGVGDAKD
B3: RAD51 A55V (natural protein, human, UniProt Q06609 1-339, looked up)
chain: MAMQMQLEANADTSVEEESFGPQPISRLEQCGINANDVKKLEEAGFHTVEAVAYVPKKELINIKGISEAKADKILAEAAKLVPMGFTTATEFHQRRSEIIQITTGSKELDKLLQGGIETGSITEMFGEFRTGKTQICHTLAVTCQLPIDRGGGEGKAMYIDTEGTFRPERLLAVAERYGLSGSDVLDNVAYARAFNTDHQTQLLYQASAMMVESRYALLIVDSATALYRTDYSGRGELSARQMHLARFLRMLLRLADEFGVAVVITNQVVAQVDGAAMFAADPKKPIGGNIIAHASTTRLYLRKGRGETRICKIYDSPCLPEAEAMFAINADGVGDAKD

Test in all cases: two-hybrid
The assay “RAD51 A55V” has as its target B3.
The assay “RAD51 A79D” addresses B2.
A further assay has as its target T1, RAD54L WT (human, UniProt Q92698 1-747).
T1 sequence (looked up): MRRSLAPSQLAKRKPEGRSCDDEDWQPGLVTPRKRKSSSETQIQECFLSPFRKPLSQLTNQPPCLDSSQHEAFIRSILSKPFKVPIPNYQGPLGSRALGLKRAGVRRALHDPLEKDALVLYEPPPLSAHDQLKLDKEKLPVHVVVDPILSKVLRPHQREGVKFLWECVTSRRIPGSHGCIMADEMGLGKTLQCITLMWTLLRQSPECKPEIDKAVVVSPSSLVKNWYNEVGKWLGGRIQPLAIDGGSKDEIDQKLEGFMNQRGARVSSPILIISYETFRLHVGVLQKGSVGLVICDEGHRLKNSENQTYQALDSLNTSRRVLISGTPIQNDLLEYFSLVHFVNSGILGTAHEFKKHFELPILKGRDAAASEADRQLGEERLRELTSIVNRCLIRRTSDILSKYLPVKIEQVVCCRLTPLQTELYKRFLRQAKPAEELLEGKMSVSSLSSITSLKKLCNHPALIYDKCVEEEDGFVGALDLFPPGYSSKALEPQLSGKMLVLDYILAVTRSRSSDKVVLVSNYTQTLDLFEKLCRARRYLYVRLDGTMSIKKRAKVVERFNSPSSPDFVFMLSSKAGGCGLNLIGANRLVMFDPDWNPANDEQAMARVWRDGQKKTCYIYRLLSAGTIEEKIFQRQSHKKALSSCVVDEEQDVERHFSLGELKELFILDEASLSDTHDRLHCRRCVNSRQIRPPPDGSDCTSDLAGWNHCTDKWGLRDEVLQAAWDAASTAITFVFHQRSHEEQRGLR

The assay “RAD51 WT” has as its target B1.
The target of another assay is T2, XRCC3 WT (human, UniProt O43542 1-346).
T2 sequence (looked up): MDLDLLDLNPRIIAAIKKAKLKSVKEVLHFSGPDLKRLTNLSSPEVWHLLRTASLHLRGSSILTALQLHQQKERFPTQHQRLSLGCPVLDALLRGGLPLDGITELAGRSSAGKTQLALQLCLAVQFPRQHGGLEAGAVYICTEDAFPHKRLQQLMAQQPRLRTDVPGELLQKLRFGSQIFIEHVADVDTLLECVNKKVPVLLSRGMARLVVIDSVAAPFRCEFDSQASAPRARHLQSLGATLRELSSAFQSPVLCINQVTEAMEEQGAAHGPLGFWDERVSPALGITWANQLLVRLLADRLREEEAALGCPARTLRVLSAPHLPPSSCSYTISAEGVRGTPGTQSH

In the case of B1, the entries for the “Y2H % of WT” value in the assay with RAD51 A55V and with RAD51 A79D were 90.8 % of WT and 109 % of WT, respectively.

With B2, the results for the “Y2H % of WT” value in the assay with RAD54L WT, with RAD51 WT and with XRCC3 WT were 90.6 % of WT, 95.1 % of WT and 21.5 % of WT, respectively.

For the molecule B3, the “Y2H % of WT” value was 112 % of WT in the assay with RAD54L WT, 135 % of WT with RAD51 WT and 97.8 % of WT with XRCC3 WT.
